Source: patent publication US20140087995A1 (published 2014)
Numbered stars: 1 amine (or outer) side, 2 acyl side, 3 side chain; on linkers, the order of the positions; unused ones are H or OH. Bridge positions count the residues as written; N and C are the ends. Side chains are listed from the residue outwards. Ends that are not written are not given here. * marks the point of attachment. C20 diacid = O=C(O)CCCCCCCCCCCCCCCCCCC(=O)*; γGlu = O=C(O)[C@H](CCC(=O)[*:2])N[*:1]

Experiments:
rat calcitonin receptor [1] = target: T1, rat calcitonin receptor (rat, UniProt P32214 25-516); test: SPA competition vs 125I-calcitonin, membranes (Assay VIII)
T1 construct: whole, on cells; Membranes prepared from transiently transfected BHK tk'ts 13 cells; also called rCTR; rat calcitonin (a) receptor
T1 sequence (looked up): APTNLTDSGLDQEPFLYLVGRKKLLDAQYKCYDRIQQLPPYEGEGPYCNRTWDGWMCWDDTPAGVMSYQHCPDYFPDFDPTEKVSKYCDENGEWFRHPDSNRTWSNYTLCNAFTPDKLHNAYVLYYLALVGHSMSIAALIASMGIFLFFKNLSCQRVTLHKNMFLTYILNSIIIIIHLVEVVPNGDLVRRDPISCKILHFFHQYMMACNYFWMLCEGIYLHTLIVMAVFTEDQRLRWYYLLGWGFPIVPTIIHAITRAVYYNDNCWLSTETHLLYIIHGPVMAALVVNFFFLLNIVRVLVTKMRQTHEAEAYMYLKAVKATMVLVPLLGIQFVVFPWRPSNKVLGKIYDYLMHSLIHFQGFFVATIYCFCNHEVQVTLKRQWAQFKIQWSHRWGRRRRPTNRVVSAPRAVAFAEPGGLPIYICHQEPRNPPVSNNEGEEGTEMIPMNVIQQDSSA

rat calcitonin receptor [2] = target: T1, rat calcitonin receptor; test: ratio of IC50 on rat calcitonin receptor to IC50 on rat amylin receptor
[3] = target: T2, rat amylin receptor (rat calcitonin receptor + rat RAMP 3) (rat, UniProt P32214 25-516; Q9JJ73 23-147); test: SPA competition vs 125I-rat amylin, membranes (Assay VI)
T2 construct: whole, on cells; Membranes prepared from transiently transfected BHK tk'ts 13 cells; also called rAmylin-R; rat amylin 3(a) receptor
T2 sequence (looked up) 1: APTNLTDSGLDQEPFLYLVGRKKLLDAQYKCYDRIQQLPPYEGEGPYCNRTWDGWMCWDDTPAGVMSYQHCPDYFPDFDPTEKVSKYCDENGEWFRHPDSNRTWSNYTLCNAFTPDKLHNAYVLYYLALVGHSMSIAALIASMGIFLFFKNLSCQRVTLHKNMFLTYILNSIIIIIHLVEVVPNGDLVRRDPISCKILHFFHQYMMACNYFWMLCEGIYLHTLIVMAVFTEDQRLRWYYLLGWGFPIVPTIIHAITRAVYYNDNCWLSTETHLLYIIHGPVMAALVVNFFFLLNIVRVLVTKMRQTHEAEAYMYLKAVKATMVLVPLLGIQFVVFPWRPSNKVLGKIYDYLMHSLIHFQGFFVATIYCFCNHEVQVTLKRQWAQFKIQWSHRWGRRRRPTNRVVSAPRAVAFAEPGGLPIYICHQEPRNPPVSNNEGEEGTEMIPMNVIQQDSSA
T2 sequence (looked up) 2: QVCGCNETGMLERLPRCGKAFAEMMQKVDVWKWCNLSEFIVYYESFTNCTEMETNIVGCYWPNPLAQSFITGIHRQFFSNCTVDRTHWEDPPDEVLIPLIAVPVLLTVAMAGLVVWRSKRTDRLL

[4] = target: T3, human calcitonin receptor (human, UniProt P30988 25-474); test: ratio of IC50 on human calcitonin receptor to IC50 on human amylin receptor
T3 construct: whole, on cells; Membranes from stably transfected BHK cells; also called hCTR; hCT
T3 sequence (looked up): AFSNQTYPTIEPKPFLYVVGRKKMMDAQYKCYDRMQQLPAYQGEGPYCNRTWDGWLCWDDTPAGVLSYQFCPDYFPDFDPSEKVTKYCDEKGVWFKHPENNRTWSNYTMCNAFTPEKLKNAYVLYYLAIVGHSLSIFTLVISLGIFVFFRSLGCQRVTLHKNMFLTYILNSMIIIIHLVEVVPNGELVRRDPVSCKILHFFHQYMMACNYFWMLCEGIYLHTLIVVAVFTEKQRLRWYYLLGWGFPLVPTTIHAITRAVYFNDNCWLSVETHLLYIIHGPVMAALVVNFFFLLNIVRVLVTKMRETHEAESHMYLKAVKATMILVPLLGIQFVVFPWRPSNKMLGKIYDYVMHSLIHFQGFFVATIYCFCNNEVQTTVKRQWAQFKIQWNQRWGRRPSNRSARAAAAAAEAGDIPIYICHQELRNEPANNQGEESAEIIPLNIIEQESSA
Procedure, shortened: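 Membranes (35 ng/μL final) + SPA beads, 50 mM Hepes pH 7.4 buffer with 1 mM CaCl2, 5 mM MgCl₂, 0.1% OA, 0.02% Tween20; 120 min, 25° C, shaking; centrifuged, counted; IC₅₀ by one-site binding competition.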

| IC50 (rat calcitonin receptor [1]) | Ratio rCT/rAmylin binding (rat calcitonin receptor [2]) | IC50 [3] | Ratio hCT/hAmylin binding [4] | Binder |
| --- | --- | --- | --- | --- |
| 26.3 nM | 22.7 | 1.16 nM | 26.4 | K([γGlu-C20 diacid])CNTATCATQRLAEFLRHSSPNFGAIPSSTNVGSHTY-NH2 (disulfide 2-7; N-terminus assumed; SMILES CC[C@H](C)[C@H](NC(=O)[C@H](C)NC(=O)CNC(=O)[C@H](Cc1ccccc1)NC(=O)[C@H](CC(N)=O)NC(=O)[C@@H]1CCCN1C(=O)[C@H](CO)NC(=O)[C@H](CO)NC(=O)[C@H](Cc1c[nH]cn1)NC(=O)[C@H](CCCNC(=N)N)NC(=O)[C@H](CC(C)C)NC(=O)[C@H](Cc1ccccc1)NC(=O)[C@H](CCC(=O)O)NC(=O)[C@H](C)NC(=O)[C@H](CC(C)C)NC(=O)[C@H](CCCNC(=N)N)NC(=O)[C@H](CCC(N)=O)NC(=O)[C@@H](NC(=O)[C@H](C)NC(=O)[C@@H]1CSSC[C@H](NC(=O)[C@@H](N)CCCCNC(=O)CC[C@H](NC(=O)CCCCCCCCCCCCCCCCCCC(=O)O)C(=O)O)C(=O)N[C@@H](CC(N)=O)C(=O)N[C@@H]([C@@H](C)O)C(=O)N[C@@H](C)C(=O)N[C@@H]([C@@H](C)O)C(=O)N1)[C@@H](C)O)C(=O)N1CCC[C@H]1C(=O)N[C@@H](CO)C(=O)N[C@@H](CO)C(=O)N[C@H](C(=O)N[C@@H](CC(N)=O)C(=O)N[C@H](C(=O)NCC(=O)N[C@@H](CO)C(=O)N[C@@H](Cc1c[nH]cn1)C(=O)N[C@H](C(=O)N[C@@H](Cc1ccc(O)cc1)C(N)=O)[C@@H](C)O)C(C)C)[C@@H](C)O) |
| 33.1 nM | 34.6 | 0.958 nM | 11.1 | K([γGlu-C20 diacid])CNTATCATQRLAEFLRHSSPNFGAIPSSTNVGHETY-NH2 (disulfide 2-7; N-terminus assumed; SMILES CC[C@H](C)[C@H](NC(=O)[C@H](C)NC(=O)CNC(=O)[C@H](Cc1ccccc1)NC(=O)[C@H](CC(N)=O)NC(=O)[C@@H]1CCCN1C(=O)[C@H](CO)NC(=O)[C@H](CO)NC(=O)[C@H](Cc1c[nH]cn1)NC(=O)[C@H](CCCNC(=N)N)NC(=O)[C@H](CC(C)C)NC(=O)[C@H](Cc1ccccc1)NC(=O)[C@H](CCC(=O)O)NC(=O)[C@H](C)NC(=O)[C@H](CC(C)C)NC(=O)[C@H](CCCNC(=N)N)NC(=O)[C@H](CCC(N)=O)NC(=O)[C@@H](NC(=O)[C@H](C)NC(=O)[C@@H]1CSSC[C@H](NC(=O)[C@@H](N)CCCCNC(=O)CC[C@H](NC(=O)CCCCCCCCCCCCCCCCCCC(=O)O)C(=O)O)C(=O)N[C@@H](CC(N)=O)C(=O)N[C@@H]([C@@H](C)O)C(=O)N[C@@H](C)C(=O)N[C@@H]([C@@H](C)O)C(=O)N1)[C@@H](C)O)C(=O)N1CCC[C@H]1C(=O)N[C@@H](CO)C(=O)N[C@@H](CO)C(=O)N[C@H](C(=O)N[C@@H](CC(N)=O)C(=O)N[C@H](C(=O)NCC(=O)N[C@@H](Cc1c[nH]cn1)C(=O)N[C@@H](CCC(=O)O)C(=O)N[C@H](C(=O)N[C@@H](Cc1ccc(O)cc1)C(N)=O)[C@@H](C)O)C(C)C)[C@@H](C)O, also called compound 107) |

Continued, binder first:

| Binder | IC50 (rat calcitonin receptor [1]) | Ratio rCT/rAmylin binding (rat calcitonin receptor [2]) | IC50 [3] | Ratio hCT/hAmylin binding [4] |
| --- | --- | --- | --- | --- |
| K([γGlu-C20 diacid])CNTATCATQRLADFLRHSSPNFGAIPSSTNVGPRTY-NH2 (disulfide 2-7; N-terminus assumed; SMILES CC[C@H](C)[C@H](NC(=O)[C@H](C)NC(=O)CNC(=O)[C@H](Cc1ccccc1)NC(=O)[C@H](CC(N)=O)NC(=O)[C@@H]1CCCN1C(=O)[C@H](CO)NC(=O)[C@H](CO)NC(=O)[C@H](Cc1c[nH]cn1)NC(=O)[C@H](CCCNC(=N)N)NC(=O)[C@H](CC(C)C)NC(=O)[C@H](Cc1ccccc1)NC(=O)[C@H](CC(=O)O)NC(=O)[C@H](C)NC(=O)[C@H](CC(C)C)NC(=O)[C@H](CCCNC(=N)N)NC(=O)[C@H](CCC(N)=O)NC(=O)[C@@H](NC(=O)[C@H](C)NC(=O)[C@@H]1CSSC[C@H](NC(=O)[C@@H](N)CCCCNC(=O)CC[C@H](NC(=O)CCCCCCCCCCCCCCCCCCC(=O)O)C(=O)O)C(=O)N[C@@H](CC(N)=O)C(=O)N[C@@H]([C@@H](C)O)C(=O)N[C@@H](C)C(=O)N[C@@H]([C@@H](C)O)C(=O)N1)[C@@H](C)O)C(=O)N1CCC[C@H]1C(=O)N[C@@H](CO)C(=O)N[C@@H](CO)C(=O)N[C@H](C(=O)N[C@@H](CC(N)=O)C(=O)N[C@H](C(=O)NCC(=O)N1CCC[C@H]1C(=O)N[C@@H](CCCNC(=N)N)C(=O)N[C@H](C(=O)N[C@@H](Cc1ccc(O)cc1)C(N)=O)[C@@H](C)O)C(C)C)[C@@H](C)O) | 58.5 nM | 116 | 0.504 nM | 151 |
| K([γGlu-C20 diacid])CNTATCATQRLAEFLRHSSPNFGAIPSSTNVGRETY-NH2 (disulfide 2-7; N-terminus assumed; SMILES CC[C@H](C)[C@H](NC(=O)[C@H](C)NC(=O)CNC(=O)[C@H](Cc1ccccc1)NC(=O)[C@H](CC(N)=O)NC(=O)[C@@H]1CCCN1C(=O)[C@H](CO)NC(=O)[C@H](CO)NC(=O)[C@H](Cc1c[nH]cn1)NC(=O)[C@H](CCCNC(=N)N)NC(=O)[C@H](CC(C)C)NC(=O)[C@H](Cc1ccccc1)NC(=O)[C@H](CCC(=O)O)NC(=O)[C@H](C)NC(=O)[C@H](CC(C)C)NC(=O)[C@H](CCCNC(=N)N)NC(=O)[C@H](CCC(N)=O)NC(=O)[C@@H](NC(=O)[C@H](C)NC(=O)[C@@H]1CSSC[C@H](NC(=O)[C@@H](N)CCCCNC(=O)CC[C@H](NC(=O)CCCCCCCCCCCCCCCCCCC(=O)O)C(=O)O)C(=O)N[C@@H](CC(N)=O)C(=O)N[C@@H]([C@@H](C)O)C(=O)N[C@@H](C)C(=O)N[C@@H]([C@@H](C)O)C(=O)N1)[C@@H](C)O)C(=O)N1CCC[C@H]1C(=O)N[C@@H](CO)C(=O)N[C@@H](CO)C(=O)N[C@H](C(=O)N[C@@H](CC(N)=O)C(=O)N[C@H](C(=O)NCC(=O)N[C@@H](CCCNC(=N)N)C(=O)N[C@@H](CCC(=O)O)C(=O)N[C@H](C(=O)N[C@@H](Cc1ccc(O)cc1)C(N)=O)[C@@H](C)O)C(C)C)[C@@H](C)O) | 86.1 nM | 81.1 | 1.06 nM | 28.5 |
| K([γGlu-C20 diacid])CNTATCATQRLADFLRHSSPNFGAIPSSTNVGPETY-NH2 (disulfide 2-7; N-terminus assumed; SMILES CC[C@H](C)[C@H](NC(=O)[C@H](C)NC(=O)CNC(=O)[C@H](Cc1ccccc1)NC(=O)[C@H](CC(N)=O)NC(=O)[C@@H]1CCCN1C(=O)[C@H](CO)NC(=O)[C@H](CO)NC(=O)[C@H](Cc1c[nH]cn1)NC(=O)[C@H](CCCNC(=N)N)NC(=O)[C@H](CC(C)C)NC(=O)[C@H](Cc1ccccc1)NC(=O)[C@H](CC(=O)O)NC(=O)[C@H](C)NC(=O)[C@H](CC(C)C)NC(=O)[C@H](CCCNC(=N)N)NC(=O)[C@H](CCC(N)=O)NC(=O)[C@@H](NC(=O)[C@H](C)NC(=O)[C@@H]1CSSC[C@H](NC(=O)[C@@H](N)CCCCNC(=O)CC[C@H](NC(=O)CCCCCCCCCCCCCCCCCCC(=O)O)C(=O)O)C(=O)N[C@@H](CC(N)=O)C(=O)N[C@@H]([C@@H](C)O)C(=O)N[C@@H](C)C(=O)N[C@@H]([C@@H](C)O)C(=O)N1)[C@@H](C)O)C(=O)N1CCC[C@H]1C(=O)N[C@@H](CO)C(=O)N[C@@H](CO)C(=O)N[C@H](C(=O)N[C@@H](CC(N)=O)C(=O)N[C@H](C(=O)NCC(=O)N1CCC[C@H]1C(=O)N[C@@H](CCC(=O)O)C(=O)N[C@H](C(=O)N[C@@H](Cc1ccc(O)cc1)C(N)=O)[C@@H](C)O)C(C)C)[C@@H](C)O) | 18.6 nM | 62 | 0.3 nM | 16.7 |
